Data taken from article PMC8595387 (Scientific Reports, 2021).

B1: humanized A10 antibody A10/16E8 (antibody, V domains shown)
VH: QVQLVQSGGQVKKPGASVKISCKASGYSFTGYTMHWVKQAPGRGLEWIGLINPYNGGTGYNQKFKGKATLTVDKSSSTTYIELLSLTSEDSAVYYCARTSGYLFAYWGQGTLVTVSS
VL: DIVLTQTPDSLAVSLGERATITCKASEDIYNRLAWYQQKAGQPPKLLISGATSLETGVPDRFSGSGSGTDFTLTISSLQAEDVATYYCQQYWSSPLTFGAGTKVNIK
notes: VH of A10/16E8 (CDRs and flanking FR residues of mA10 grafted onto the human framework 16E8); VL of A10/16E8 (CDRs and flanking FR residues of mA10 grafted onto the human framework 16E8); also called A10/16A8 (as printed once in the discussion); source: Expi293F, transiently transfected, purified (protein G)
B2: mouse anti-ADAMTS13 antibody clone A10 (antibody, V domains shown)
VH: EVQLQQSGPELVKPGTSMKISCKASGYSFTGYTMHWVKQSHGKNLEWIGLINPYNGGTGYNQKFKGKATLTVDKSSSTTYIELLSLTSEDSAVYYCARTSGYLFAYWGQGTLVTVSA
VL: DIQMTQSSSSFSVSLGDRVTITCKASEDIYNRLAWYQQKPGNAPRLLISGATSLETGVPSRFSGSGSGKDYIFSITSLQTEDVATYYCQQYWSSPLTFGAGTKLELK
notes: VH of mA10; mouse heavy chain constant region cloned from the mA10 hybridoma; VL of mA10; mouse light chain constant region cloned from the mA10 hybridoma; Whole mouse IgG; mouse IgG2b served as the negative control, which may hint at IgG2b (surmise); also called mA10; mouse A10; source: Expi293F, transiently transfected, purified (protein G)
B3: human-mouse chimeric A10 (antibody, V domains shown)
VH: B2 VH
VL: B2 VL
B4: humanized A10 antibody A10/8A7 (antibody, V domains shown)
VH: QIHLVESGGGVVQTGKSMKISCKASGYSFTGYTMHWVKQTPGKNLEWIGLINPYNGGTGYNQKFKGKATLTVDKSSSTTYIELLSLTSEDSAVYYCARTSGYLFAYWGQGTLVTVSS
VL: ETVMTQSPATLSVSPGERATITCKASEDIYNRLAWYQQKPGQAPRLLISGATSLETGVPSRFSGSGSGTEFTLTISSLQSEDVATYYCQQYWSSPLTFGAGTKLEIK

The binders below were run against T1, Recombinant Human ADAMTS13 (Full Length) Protein (Homo sapiens, UniProt Q76LX8) (assay: cell-based or functional assay). Settings: not given.
T1 sequence (Q76LX8 75-1427): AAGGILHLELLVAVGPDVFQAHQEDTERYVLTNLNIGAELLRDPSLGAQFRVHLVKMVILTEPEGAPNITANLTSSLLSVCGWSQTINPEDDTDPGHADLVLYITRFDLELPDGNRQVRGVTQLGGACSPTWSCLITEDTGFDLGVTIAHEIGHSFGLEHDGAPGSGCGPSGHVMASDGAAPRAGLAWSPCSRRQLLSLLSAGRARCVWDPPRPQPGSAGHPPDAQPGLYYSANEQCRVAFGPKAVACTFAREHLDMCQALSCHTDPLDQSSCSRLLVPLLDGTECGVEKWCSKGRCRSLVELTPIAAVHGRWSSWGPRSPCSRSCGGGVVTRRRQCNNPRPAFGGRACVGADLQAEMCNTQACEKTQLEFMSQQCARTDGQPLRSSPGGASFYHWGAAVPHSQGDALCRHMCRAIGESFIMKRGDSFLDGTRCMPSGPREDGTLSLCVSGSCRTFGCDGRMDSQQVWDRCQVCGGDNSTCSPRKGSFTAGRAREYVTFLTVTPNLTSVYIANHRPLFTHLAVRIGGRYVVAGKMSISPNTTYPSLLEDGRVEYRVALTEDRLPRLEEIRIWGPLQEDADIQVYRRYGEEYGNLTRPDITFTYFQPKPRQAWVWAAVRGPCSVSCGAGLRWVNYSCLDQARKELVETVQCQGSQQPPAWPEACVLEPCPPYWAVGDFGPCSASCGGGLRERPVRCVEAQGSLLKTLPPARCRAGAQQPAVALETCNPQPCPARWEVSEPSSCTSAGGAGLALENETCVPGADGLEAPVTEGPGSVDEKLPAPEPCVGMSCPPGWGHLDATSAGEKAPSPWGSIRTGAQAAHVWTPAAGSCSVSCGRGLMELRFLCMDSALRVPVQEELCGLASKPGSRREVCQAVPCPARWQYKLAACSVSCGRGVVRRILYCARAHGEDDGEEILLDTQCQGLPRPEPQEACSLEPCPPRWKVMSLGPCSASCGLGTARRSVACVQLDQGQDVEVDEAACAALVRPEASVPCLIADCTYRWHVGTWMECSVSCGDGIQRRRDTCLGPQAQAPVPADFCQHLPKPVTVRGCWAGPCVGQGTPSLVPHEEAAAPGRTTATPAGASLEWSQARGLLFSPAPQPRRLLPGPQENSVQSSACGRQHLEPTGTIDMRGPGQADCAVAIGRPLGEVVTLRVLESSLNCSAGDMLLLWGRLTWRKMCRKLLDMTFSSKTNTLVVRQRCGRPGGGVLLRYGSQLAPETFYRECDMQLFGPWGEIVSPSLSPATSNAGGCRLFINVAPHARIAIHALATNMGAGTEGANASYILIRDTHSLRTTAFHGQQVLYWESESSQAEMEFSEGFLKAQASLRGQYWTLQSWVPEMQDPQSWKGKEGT

IC50 of inhibition of plasma ADAMTS13 activity on VWF cleavage (chromogenic ELISA, normal pooled plasma, antibody 25 to 0.20 ug/mL) [µg/mL]	Binder
0.9	B1
2.28	B2
2.3	B3
7.3	B4

The binders below were run against T1, Recombinant Human ADAMTS13 (Full …) (assay: SPR; Biacore T200; antibodies captured at about 1,000 RU on anti-human or anti-mouse IgG (Fc) on a CM5 chip; ADAMTS13 injected at 80 nM to 0.625 nM in PBS with 0.05% Tween 20; 25 C; 30 uL/min; contact 240 s, dissociation 900 s; 1:1 binding model). Settings: both partners purified.

Kd [nM]	koff [s⁻¹]	kon [M⁻¹ s⁻¹]	Binder
5.07	6.3e-05	12400	B1
5.99	0.000362	60400	B2
2.8	2.03e-05	7270	B3
20.8	0.000193	9270	B4
